Test results from patent publication US20130071424A1.

Columns and labels:
[1] = biological target: AIDSVAX recombinant gp120 immunogen A244 (AIDSVAX subtype E) (HIV-1 subtype E (CRF01_AE) strain A244); assay: ELISA, gp120 coated at 3 µg/ml, antibody titrated 0.002-10 µg/ml
[2] = biological target: AIDSVAX recombinant gp120 immunogen MN (AIDSVAX subtype B) (HIV-1 subtype B strain MN) (UniProt P05877); assay: as above

Substance | EC50 [1] [ng/mL] | EC50 [2] [ng/mL]
human anti-V2 monoclonal antibody 697-D | 5.7 | 5.5
human anti-V2 monoclonal antibody 2158 | 4.1 | 3.9
